According to patent US20090004675A1, “Method of Identifying Compounds for Bacterial Growth Modulation” (priority 2004, published 2009):

Experiments:
[1] = molecular target: Streptococcus pyogenes β clamp; assay: fluorescence anisotropy; labeled peptide; conditions: chains peptide; modification not given
[2] = molecular target: Escherichia coli β clamp (beta subunit of DNA polymerase III holoenzyme), P0A988; assay: fluorescence (fluorophore-labeled β titrated with peptide); ±0.4; labeled β; conditions: chains peptide; modification not given

Binder	Kd [1] [nM]	Kd [2] [nM]
DEMGILGNMPEDNQLSLFDDFF [Peptide corresponding to C-terminal residues of Streptococcus pyogenes Pol C]	2200	
DELGSLPNLPDKAQLSIFDM [C-terminal peptide corresponding to Staphylococcus aureus Pol C]	14000	
RLLNDLRGLIGSEQVELEFD [20 mer peptide corresponding to the C-terminal 20 residues of E. coli Pol III α subunit]		2700
